We go through two molecules from US20250043019A1 (Janssen / Centocor, published 2025).

Bounds are passed on as bounds.

Assay [1] addresses T1, cynomolgus monkey CD79b antigen (cynomolgus monkey).
T1 construct: also called cyno CD79b; CD9W1.001
Description: SPR.

Assay [2] addresses T2, human CD20 on the cell surface (human, UniProt P11836 1-297).
T2 construct: whole, on cells; On B-lymphoma lines, primary B cells, K562 CD20 or HEK293 transfectants; also called MS4A1; B-lymphocyte antigen CD20
T2 sequence (looked up): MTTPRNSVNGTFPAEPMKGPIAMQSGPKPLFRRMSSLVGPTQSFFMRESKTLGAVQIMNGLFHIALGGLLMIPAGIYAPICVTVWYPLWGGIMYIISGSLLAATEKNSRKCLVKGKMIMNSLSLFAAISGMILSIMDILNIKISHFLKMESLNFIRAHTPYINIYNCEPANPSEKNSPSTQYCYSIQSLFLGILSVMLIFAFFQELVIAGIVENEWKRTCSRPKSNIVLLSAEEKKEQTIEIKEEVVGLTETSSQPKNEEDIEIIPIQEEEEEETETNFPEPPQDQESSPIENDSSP
Description: cell-based binding on CARNAVAL cells.

B1: C923B38 CD79bxCD20xCD3 trispecific antibody (other)
heavy: QVQLQESGPGLVKPSETLSLTCSVSGASISSFYWSWIRQPADEGLEWIGRISPSGKTNYIPSLKSRIIMSLDASKNQFSLRLNSVTAADTAMYYCARGEYSGTYSYSFDVWGQGTMVTVSSASTKGPSVFPLAPSSKSTSGGTAALGCLVKDYFPEPVTVSWNSGALTSGVHTFPAVLQSSGLYSLSSVVTVPSSSLGTQTYICNVNHKPSNTKVDKKVEPKSCDKTHTCPPCPAPEAAGGPSVFLFPPKPKDTLMISRTPEVTCVVVSVSHEDPEVKFNWYVDGVEVHNAKTKPREEQYNSTYRVVSVLTVLHQDWLNGKEYKCKVSNKALPAPIEKTISKAKGQPREPQVYTLPPSREEMTKNQVSLSCAVKGFYPSDIAVEWESNGQPENNYKTTPPVLDSDGSFFLVSKLTVDKSRWQQGNVFSCSVMHEALHNRFTQKSLSLSPGK
light: DIVMTQSPLSLSVTPGEPASISCRSSESLLDSEDGNTYLDWFLQKPGQSPQLLIYTLSYRASGVPDRFSGSGSDTDFTLHISSLEAEDVGLYYCMQRMEFPLTFGQGTKVEIKRTVAAPSVFIFPPSDEQLKSGTASVVCLLNNFYPREAKVQWKVDNALQSGNSQESVTEQDSKDSTYSLSSTLTLSKADYEKHKVYACEVTHQGLSSPVTKSFNRGEC
chain: EIVLTQSPATLSASPGERVTLSCSASSSVSYMNWYQQKPGQAPRRWIYDSSKLASGVPARFSGSGSGRDYTLTISSLEPEDFAVYYCQQWSRNPPTFGGGTKVEIKGGSEGKSSGSGSESKSTGGSQVQLVQSGAEVKKPGSSVKVSCKASGYTFTRSTMHWVKQAPGQGLEWIGYINPSSAYTNYNQKFQGRVTLTADKSTSTAYMELSSLRSEDTAVYYCASPQVHYDYAGFPYWGQGTLVTVSSEPKSSDKTHTCPPCPAPEAAGGPSVFLFPPKPKDTLMISRTPEVTCVVVSVSHEDPEVKFNWYVDGVEVHNAKTKPREEQYNSTYRVVSVLTVLHQDWLNGKEYKCKVSNKALPAPIEKTISKAKGQPREPQVYTLPPSREEMTKNQVSLWCLVKGFYPSDIAVEWESNGQPENNYKTTPPVLDSDGSFFLYSKLTVDKSRWQQGNVFSCSVMHEALHNHYTQKSLSLSPGKGGSEGKSSGSGSESKSTGGSAIQLTQSPSSLSASVGDRVTITCRASSSVSYIHWFQQKPGKAPKPLIYATSNLASGVPSRFSGSGSGTDFTLTISSLQPEDFATYYCQQWTSNPPTFGQGTKLEIKGGSEGKSSGSGSESKSTGGSQVQLVQSGAEVKKPGSSVKVSCKASGYTFTSYNMHWVRQAPGQGLEWMGAIYPGNGDTSYAQKFQGRVTITADKSTSTAYMELSSLRSEDTAVYYCARSTYYGGDWYFNVWGQGTLVTVSS
notes: Trispecific IgG1: CD79b Fab arm (HC1/LC) plus one chain CD3 scFv-Fc-CD20 scFv; also called CD9B374 / CD3B2030-N106A-scFv-LH-C20B22
In the case of B1, in assay [1], the dissociation constant (Kd) was > 3000 nM.

B2: CD20 binding arm of C923B169 tested as scFv (scFv)
chain: EIVLTQSPATLSLSPGERATLSCRASLSVSSMHWYQQKPGQAPRLLIYATSNLASGIPARFSGSGSGTDFTLTISSLEPEDFAVYYCQQWIFNPPTFGGGTKVEIKGGSEGKSSGSGSESKSTGGSQVQLVQSGAEVKKPGSSVKVSCKASGYTFSSYNMHWVRQAPGQGLEWMGAIYPGAGDTSYAQKFQGRVTITADESTSTAYMELSSLRSEDTAVYYCARSNYYGSSGWYFDVWGKGTTVTVSS
Molecule B2 had an EC50 in assay [2] of 16 nM.
